Experimental findings from PMC5584245 (Oncotarget, 2017) are described below.

The target in one assay is T1, CD24-GST (Homo sapiens, UniProt P25063).
T1 construct: cluster of differentiation 24 (CD24) fused to GST; also called GST-CD24
T1 chain: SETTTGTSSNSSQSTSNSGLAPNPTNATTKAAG
The experiment in a line: SPR; Biacore X100; CD24-GST flowed over immobilized antibody; 1:1 binding model; procedure as in ref. 45. To be noted: both partners purified. On the technique in general: SPR reads the build-up and loss of mass on a sensor chip optically.

Assay [1] concerns the target T2, membrane CD24 on hepatoma cells (Huh-7, BEL-7402) (Homo sapiens, UniProt P25063).
T2 construct: cluster of differentiation 24 (CD24), GPI-linked membrane protein, endogenous on human hepatoma cell lines; also called CD24 receptors; CD24 ligand; source: endogenous, on Huh-7 and BEL-7402 cells
T2 chain: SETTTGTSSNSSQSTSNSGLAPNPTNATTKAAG
The experiment in a line: flow cytometry on cells; antibody on Huh-7 and BEL-7402 hepatoma cells, also after RNA interference against CD24; procedure as in ref. 12. To be noted: one partner purified.

B1: chimeric antibody cG7 (antibody, V domains shown)
VH: QVKLEESGGGLVQPGGSLKISCAASGFDFSRYWMSWVRQAPGKGLEWIGEINPDSSTINYTPSLRDKFIISRDNAKNTLYLQMSKVRYEDTSLYYCARQGDYWGQGTSVTVSS
VL: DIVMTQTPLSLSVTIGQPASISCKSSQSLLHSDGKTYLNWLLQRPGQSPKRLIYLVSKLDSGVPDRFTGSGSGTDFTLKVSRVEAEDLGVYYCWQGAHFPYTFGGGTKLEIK
notes: murine VH of G7mAb (G7mAb-VH); human heavy-chain constant region of the chimeric antibody; murine VL of G7mAb (G7mAb-VL); human light-chain constant region of the chimeric antibody; Chimeric: murine G7mAb variable domains on human constant regions; The vectors of the laboratory hold IgG1 H and L chains and the constant region of the humanized antibodies is from Cetuximab; also called parental …
By Kd is commonly meant the concentration at which binding is half-saturated. As usually defined, the koff is a measure of how fast the partners let go of each other. A low value points to a long-lived complex. Broadly, the kon is a measure of how fast the partners come together. In the assay with CD24-GST, B1 yielded a Kd of 0.191 nM, a koff of 0.000336 s⁻¹ and a kon of 1.76e+06 M⁻¹ s⁻¹. Also, in assay [1], the “binding rate to BEL-7402 cells” value stood at 79.3% and the “binding rate to Huh-7 cells” value is 88.4%.

B2: hG7-BM3 (hVH-B2, hVL-B1) (antibody, V domains shown)
VH: QVQLVESGGGVVQPGRSLRLSCAASGFTFSRYWMSWVRQAPGKGLEWIAEINPDSSTINYTPSLRDKFTISRDNSKNTLYLQMSSLRAEDTAVYYCARQGDYWGQGTLVTVSS
VL: DIVMTQTPLSLSVTPGQPASISCKSSQSLLHSDGKTYLNWYLQKPGQSPQRLIYLVSKLDSGVPDRFSGSGSGTDFTLKISRVEAEDVGVYYCWQGAHFPYTFGQGTKLEIK
B2 displayed a Kd in the assay with CD24-GST of 0.57 nM.
